# Laboratory results: US20220204580A1 (AstraZeneca / MedImmune, published 2022)
# Numbered stars: 1 amine (or outer) side, 2 acyl side, 3 side chain; on linkers, the order of the positions; unused ones are H or OH. Bridge positions count the residues as written; N and C are the ends. Square brackets hold non-standard residues; d marks the D form. Side chains are listed from the residue outwards. Ends that are not written are not given here. * marks the point of attachment. C18 diacid = O=C(O)CCCCCCCCCCCCCCCCC(=O)*; γGlu = O=C(O)[C@H](CCC(=O)[*:2])N[*:1]; Aib = CC(C)(N)C(=O)O
# T1: human amylin receptor (calcitonin receptor co-expressed with receptor activity modifying protein, RAMP3) (human, UniProt P30988 25-474; O60896 24-148)
# T1 sequence (looked up) 1: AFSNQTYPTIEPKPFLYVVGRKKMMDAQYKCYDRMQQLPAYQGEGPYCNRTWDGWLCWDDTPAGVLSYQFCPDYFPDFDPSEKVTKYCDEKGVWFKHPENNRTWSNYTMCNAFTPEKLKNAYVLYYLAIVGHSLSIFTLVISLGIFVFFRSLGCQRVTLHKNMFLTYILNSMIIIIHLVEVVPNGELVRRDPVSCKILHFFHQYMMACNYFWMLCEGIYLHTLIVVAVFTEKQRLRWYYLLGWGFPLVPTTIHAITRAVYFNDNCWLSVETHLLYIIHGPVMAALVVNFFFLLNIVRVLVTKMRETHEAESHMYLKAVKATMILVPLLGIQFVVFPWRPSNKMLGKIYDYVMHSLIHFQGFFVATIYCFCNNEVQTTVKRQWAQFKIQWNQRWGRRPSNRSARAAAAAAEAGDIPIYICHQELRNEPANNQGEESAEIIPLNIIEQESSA
# T1 sequence (looked up) 2: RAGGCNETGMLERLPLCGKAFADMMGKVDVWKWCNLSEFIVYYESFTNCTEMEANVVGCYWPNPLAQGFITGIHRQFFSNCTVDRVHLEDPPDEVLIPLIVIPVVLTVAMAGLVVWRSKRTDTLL
# T2: human calcitonin receptor (human, UniProt P30988 25-474)
# T2 sequence (looked up): T1 sequence (looked up) 1
# B1: Peptide 143 (SEQ ID NO: 143) (peptide)
# peptide: K([γGlu-C18 diacid])GGKCNTATCATQRLANFL[Aib]HSSNNFGPILPPTNVGSNTY-NH2
# modifications: disulfide 5-10; N-terminus assumed
# SMILES: CC[C@H](C)[C@H](NC(=O)[C@@H]1CCCN1C(=O)CNC(=O)[C@H](Cc1ccccc1)NC(=O)[C@H](CC(N)=O)NC(=O)[C@H](CC(N)=O)NC(=O)[C@H](CO)NC(=O)[C@H](CO)NC(=O)[C@H](Cc1c[nH]cn1)NC(=O)C(C)(C)NC(=O)[C@H](CC(C)C)NC(=O)[C@H](Cc1ccccc1)NC(=O)[C@H](CC(N)=O)NC(=O)[C@H](C)NC(=O)[C@H](CC(C)C)NC(=O)[C@H](CCCNC(=N)N)NC(=O)[C@H](CCC(N)=O)NC(=O)[C@@H](NC(=O)[C@H](C)NC(=O)[C@@H]1CSSC[C@H](NC(=O)[C@H](CCCCN)NC(=O)CNC(=O)CNC(=O)[C@@H](N)CCCCNC(=O)CC[C@H](NC(=O)CCCCCCCCCCCCCCCCC(=O)O)C(=O)O)C(=O)N[C@@H](CC(N)=O)C(=O)N[C@@H]([C@@H](C)O)C(=O)N[C@@H](C)C(=O)N[C@@H]([C@@H](C)O)C(=O)N1)[C@@H](C)O)C(=O)N[C@@H](CC(C)C)C(=O)N1CCC[C@H]1C(=O)N1CCC[C@H]1C(=O)N[C@H](C(=O)N[C@@H](CC(N)=O)C(=O)N[C@H](C(=O)NCC(=O)N[C@@H](CO)C(=O)N[C@@H](CC(N)=O)C(=O)N[C@H](C(=O)N[C@@H](Cc1ccc(O)cc1)C(N)=O)[C@@H](C)O)C(C)C)[C@@H](C)O
# B2: Peptide 145 (SEQ ID NO: 145) (peptide)
# peptide: K([γGlu-C18 diacid])KCNTATCATQRLANFL[Aib]HSSNNFGPILPPTNVGHNTY-NH2
# modifications: disulfide 3-8; N-terminus assumed
# SMILES: CC[C@H](C)[C@H](NC(=O)[C@@H]1CCCN1C(=O)CNC(=O)[C@H](Cc1ccccc1)NC(=O)[C@H](CC(N)=O)NC(=O)[C@H](CC(N)=O)NC(=O)[C@H](CO)NC(=O)[C@H](CO)NC(=O)[C@H](Cc1c[nH]cn1)NC(=O)C(C)(C)NC(=O)[C@H](CC(C)C)NC(=O)[C@H](Cc1ccccc1)NC(=O)[C@H](CC(N)=O)NC(=O)[C@H](C)NC(=O)[C@H](CC(C)C)NC(=O)[C@H](CCCNC(=N)N)NC(=O)[C@H](CCC(N)=O)NC(=O)[C@@H](NC(=O)[C@H](C)NC(=O)[C@@H]1CSSC[C@H](NC(=O)[C@H](CCCCN)NC(=O)[C@@H](N)CCCCNC(=O)CC[C@H](NC(=O)CCCCCCCCCCCCCCCCC(=O)O)C(=O)O)C(=O)N[C@@H](CC(N)=O)C(=O)N[C@@H]([C@@H](C)O)C(=O)N[C@@H](C)C(=O)N[C@@H]([C@@H](C)O)C(=O)N1)[C@@H](C)O)C(=O)N[C@@H](CC(C)C)C(=O)N1CCC[C@H]1C(=O)N1CCC[C@H]1C(=O)N[C@H](C(=O)N[C@@H](CC(N)=O)C(=O)N[C@H](C(=O)NCC(=O)N[C@@H](Cc1c[nH]cn1)C(=O)N[C@@H](CC(N)=O)C(=O)N[C@H](C(=O)N[C@@H](Cc1ccc(O)cc1)C(N)=O)[C@@H](C)O)C(C)C)[C@@H](C)O
# B3: Peptide 146 (SEQ ID NO: 146) (peptide)
# peptide: K([γGlu-C18 diacid])KCNTATCATQRLANFL[Aib]HSSNNFGPILPPTHVGSETY-NH2
# modifications: disulfide 3-8; N-terminus assumed
# SMILES: CC[C@H](C)[C@H](NC(=O)[C@@H]1CCCN1C(=O)CNC(=O)[C@H](Cc1ccccc1)NC(=O)[C@H](CC(N)=O)NC(=O)[C@H](CC(N)=O)NC(=O)[C@H](CO)NC(=O)[C@H](CO)NC(=O)[C@H](Cc1c[nH]cn1)NC(=O)C(C)(C)NC(=O)[C@H](CC(C)C)NC(=O)[C@H](Cc1ccccc1)NC(=O)[C@H](CC(N)=O)NC(=O)[C@H](C)NC(=O)[C@H](CC(C)C)NC(=O)[C@H](CCCNC(=N)N)NC(=O)[C@H](CCC(N)=O)NC(=O)[C@@H](NC(=O)[C@H](C)NC(=O)[C@@H]1CSSC[C@H](NC(=O)[C@H](CCCCN)NC(=O)[C@@H](N)CCCCNC(=O)CC[C@H](NC(=O)CCCCCCCCCCCCCCCCC(=O)O)C(=O)O)C(=O)N[C@@H](CC(N)=O)C(=O)N[C@@H]([C@@H](C)O)C(=O)N[C@@H](C)C(=O)N[C@@H]([C@@H](C)O)C(=O)N1)[C@@H](C)O)C(=O)N[C@@H](CC(C)C)C(=O)N1CCC[C@H]1C(=O)N1CCC[C@H]1C(=O)N[C@H](C(=O)N[C@@H](Cc1c[nH]cn1)C(=O)N[C@H](C(=O)NCC(=O)N[C@@H](CO)C(=O)N[C@@H](CCC(=O)O)C(=O)N[C@H](C(=O)N[C@@H](Cc1ccc(O)cc1)C(N)=O)[C@@H](C)O)C(C)C)[C@@H](C)O
# B4: Peptide 144 (SEQ ID NO: 144) (peptide)
# peptide: K([γGlu-C18 diacid])CNTATCATQRLAHFL[Aib]HSSNNFGPILPPTNVGSNTY-NH2
# modifications: disulfide 2-7; N-terminus assumed
# SMILES: CC[C@H](C)[C@H](NC(=O)[C@@H]1CCCN1C(=O)CNC(=O)[C@H](Cc1ccccc1)NC(=O)[C@H](CC(N)=O)NC(=O)[C@H](CC(N)=O)NC(=O)[C@H](CO)NC(=O)[C@H](CO)NC(=O)[C@H](Cc1c[nH]cn1)NC(=O)C(C)(C)NC(=O)[C@H](CC(C)C)NC(=O)[C@H](Cc1ccccc1)NC(=O)[C@H](Cc1c[nH]cn1)NC(=O)[C@H](C)NC(=O)[C@H](CC(C)C)NC(=O)[C@H](CCCNC(=N)N)NC(=O)[C@H](CCC(N)=O)NC(=O)[C@@H](NC(=O)[C@H](C)NC(=O)[C@@H]1CSSC[C@H](NC(=O)[C@@H](N)CCCCNC(=O)CC[C@H](NC(=O)CCCCCCCCCCCCCCCCC(=O)O)C(=O)O)C(=O)N[C@@H](CC(N)=O)C(=O)N[C@@H]([C@@H](C)O)C(=O)N[C@@H](C)C(=O)N[C@@H]([C@@H](C)O)C(=O)N1)[C@@H](C)O)C(=O)N[C@@H](CC(C)C)C(=O)N1CCC[C@H]1C(=O)N1CCC[C@H]1C(=O)N[C@H](C(=O)N[C@@H](CC(N)=O)C(=O)N[C@H](C(=O)NCC(=O)N[C@@H](CO)C(=O)N[C@@H](CC(N)=O)C(=O)N[C@H](C(=O)N[C@@H](Cc1ccc(O)cc1)C(N)=O)[C@@H](C)O)C(C)C)[C@@H](C)O
# B5: Peptide 147 (SEQ ID NO: 147) (peptide)
# peptide: K([γGlu-C18 diacid])KCNTATCATQRLANFL[Aib]HSSNHFGPILPPTNVGSETY-NH2
# modifications: disulfide 3-8; N-terminus assumed
# SMILES: CC[C@H](C)[C@H](NC(=O)[C@@H]1CCCN1C(=O)CNC(=O)[C@H](Cc1ccccc1)NC(=O)[C@H](Cc1c[nH]cn1)NC(=O)[C@H](CC(N)=O)NC(=O)[C@H](CO)NC(=O)[C@H](CO)NC(=O)[C@H](Cc1c[nH]cn1)NC(=O)C(C)(C)NC(=O)[C@H](CC(C)C)NC(=O)[C@H](Cc1ccccc1)NC(=O)[C@H](CC(N)=O)NC(=O)[C@H](C)NC(=O)[C@H](CC(C)C)NC(=O)[C@H](CCCNC(=N)N)NC(=O)[C@H](CCC(N)=O)NC(=O)[C@@H](NC(=O)[C@H](C)NC(=O)[C@@H]1CSSC[C@H](NC(=O)[C@H](CCCCN)NC(=O)[C@@H](N)CCCCNC(=O)CC[C@H](NC(=O)CCCCCCCCCCCCCCCCC(=O)O)C(=O)O)C(=O)N[C@@H](CC(N)=O)C(=O)N[C@@H]([C@@H](C)O)C(=O)N[C@@H](C)C(=O)N[C@@H]([C@@H](C)O)C(=O)N1)[C@@H](C)O)C(=O)N[C@@H](CC(C)C)C(=O)N1CCC[C@H]1C(=O)N1CCC[C@H]1C(=O)N[C@H](C(=O)N[C@@H](CC(N)=O)C(=O)N[C@H](C(=O)NCC(=O)N[C@@H](CO)C(=O)N[C@@H](CCC(=O)O)C(=O)N[C@H](C(=O)N[C@@H](Cc1ccc(O)cc1)C(N)=O)[C@@H](C)O)C(C)C)[C@@H](C)O
# B6: Peptide 142 (SEQ ID NO: 142) (peptide)
# peptide: K([γGlu-C18 diacid])KCNTATCATQRLANFL[Aib]HSSNNFGPILPPTNVGSETY-NH2
# modifications: disulfide 3-8; N-terminus assumed
# SMILES: CC[C@H](C)[C@H](NC(=O)[C@@H]1CCCN1C(=O)CNC(=O)[C@H](Cc1ccccc1)NC(=O)[C@H](CC(N)=O)NC(=O)[C@H](CC(N)=O)NC(=O)[C@H](CO)NC(=O)[C@H](CO)NC(=O)[C@H](Cc1c[nH]cn1)NC(=O)C(C)(C)NC(=O)[C@H](CC(C)C)NC(=O)[C@H](Cc1ccccc1)NC(=O)[C@H](CC(N)=O)NC(=O)[C@H](C)NC(=O)[C@H](CC(C)C)NC(=O)[C@H](CCCNC(=N)N)NC(=O)[C@H](CCC(N)=O)NC(=O)[C@@H](NC(=O)[C@H](C)NC(=O)[C@@H]1CSSC[C@H](NC(=O)[C@H](CCCCN)NC(=O)[C@@H](N)CCCCNC(=O)CC[C@H](NC(=O)CCCCCCCCCCCCCCCCC(=O)O)C(=O)O)C(=O)N[C@@H](CC(N)=O)C(=O)N[C@@H]([C@@H](C)O)C(=O)N[C@@H](C)C(=O)N[C@@H]([C@@H](C)O)C(=O)N1)[C@@H](C)O)C(=O)N[C@@H](CC(C)C)C(=O)N1CCC[C@H]1C(=O)N1CCC[C@H]1C(=O)N[C@H](C(=O)N[C@@H](CC(N)=O)C(=O)N[C@H](C(=O)NCC(=O)N[C@@H](CO)C(=O)N[C@@H](CCC(=O)O)C(=O)N[C@H](C(=O)N[C@@H](Cc1ccc(O)cc1)C(N)=O)[C@@H](C)O)C(C)C)[C@@H](C)O
# Target: T1, human amylin receptor (calcitonin …)
# Experiment: cell-based or functional assay
EC50 (cAMP production) [nM],Ratio (EC50 hCTR / EC50 hAMYR3),Binder
0.592,11.7,B1
0.417,4.5,B2
2.53,1.9,B3
0.138,5.3,B4
0.802,1.9,B5
0.73,3.1,B6

# Target: T2, human calcitonin receptor
# Experiment: cell-based or functional assay
row,EC50 (cAMP production) [nM],Binder
1,6.94,B1
2,1.88,B2
3,4.87,B3
4,0.725,B4
5,1.51,B5
6,2.27,B6
